B1: EHEE_rd4_0086 (parent)
chain: EIHIRTNGEEQARKVYKMLAKRNYDVKIEQHNGQWVVTAS

Variants of: B1
Experiment: folding stability dG (cDNA display proteolysis); higher = more stable
Conditions: PBS, room temperature

Variant | folding stability dG [kJ/mol]
EIHIRTNGEEQVRKVYKMLAKRNYDVKIEQHNGQWVVTAS [A12V] | -0.477
EIHIRTNGEEQRRKVYKMLAKRNYDVKIEQHNGQWVVTAS [A12R] | -0.912
EIHIRTNGEEQKRKVYKMLAKRNYDVKIEQHNGQWVVTAS [A12K] | -1.11
EIHIRTNGEEQWRKVYKMLAKRNYDVKIEQHNGQWVVTAS [A12W] | 2
EIHIRTNGEEQLRKVYKMLAKRNYDVKIEQHNGQWVVTAS [A12L] | 0.891
EIHIRTNGEEQIRKVYKMLAKRNYDVKIEQHNGQWVVTAS [A12I] | 0.481
EIHIRTNGEEQYRKVYKMLAKRNYDVKIEQHNGQWVVTAS [A12Y] | -1.05
EIHIRTNGEEQSRKVYKMLAKRNYDVKIEQHNGQWVVTAS [A12S] | 1.4
EIHIRTNGEEQGRKVYKMLAKRNYDVKIEQHNGQWVVTAS [A12G] | 0.561
EIHIRTNGEEQFRKVYKMLAKRNYDVKIEQHNGQWVVTAS [A12F] | -0.0795
EIHIRTNGEEQMRKVYKMLAKRNYDVKIEQHNGQWVVTAS [A12M] | 2.03
EIHIRTNGEEQTRKVYKMLAKRNYDVKIEQHNGQWVVTAS [A12T] | 0.452
EIHIRTNGEEQCRKVYKMLAKRNYDVKIEQHNGQWVVTAS [A12C] | 10.5
EIHIRTNGEEQQRKVYKMLAKRNYDVKIEQHNGQWVVTAS [A12Q] | -3.96
EIHIRYNGEEQARKVYKMLAKRNYDVKIEQHNGQWVVTAS [T6Y] | 7.91
EIHIRTNGEENARKVYKMLAKRNYDVKIEQHNGQWVVTAS [Q11N] | 5.64
EIHIRTNGEEIARKVYKMLAKRNYDVKIEQHNGQWVVTAS [Q11I] | 7.71
EIHIRTNGEEGARKVYKMLAKRNYDVKIEQHNGQWVVTAS [Q11G] | 4.26
EIHIRTNGEESARKVYKMLAKRNYDVKIEQHNGQWVVTAS [Q11S] | 6.51
EIHIRTNGEEHARKVYKMLAKRNYDVKIEQHNGQWVVTAS [Q11H] | 8.18
EIHIRTNGEERARKVYKMLAKRNYDVKIEQHNGQWVVTAS [Q11R] | 6.33
EIHIRTNGEEKARKVYKMLAKRNYDVKIEQHNGQWVVTAS [Q11K] | 5.84
EIHIRTNGEETARKVYKMLAKRNYDVKIEQHNGQWVVTAS [Q11T] | 6.64
EIHIRTNGEELARKVYKMLAKRNYDVKIEQHNGQWVVTAS [Q11L] | 7.89
EIHIRTNGEEDARKVYKMLAKRNYDVKIEQHNGQWVVTAS [Q11D] | 7

Variant | folding stability dG [kJ/mol]
EIHIRTNGEEMARKVYKMLAKRNYDVKIEQHNGQWVVTAS [Q11M] | 8.17
EIHIRTNGEEFARKVYKMLAKRNYDVKIEQHNGQWVVTAS [Q11F] | 8.59
EIHIRTNGEEEARKVYKMLAKRNYDVKIEQHNGQWVVTAS [Q11E] | 8.78
EIHIRTNGEEWARKVYKMLAKRNYDVKIEQHNGQWVVTAS [Q11W] | 8.79
EIHIRTNGEEVARKVYKMLAKRNYDVKIEQHNGQWVVTAS [Q11V] | 6.73
EIHIRTNGEEYARKVYKMLAKRNYDVKIEQHNGQWVVTAS [Q11Y] | 8.38
EIHIRTNGEEPARKVYKMLAKRNYDVKIEQHNGQWVVTAS [Q11P] | 1.56
EIHIRTNGEEAARKVYKMLAKRNYDVKIEQHNGQWVVTAS [Q11A] | 7.91
EIHIRTLGEEQARKVYKMLAKRNYDVKIEQHNGQWVVTAS [N7L] | 7.59
EIHIRTYGEEQARKVYKMLAKRNYDVKIEQHNGQWVVTAS [N7Y] | 8.34
EIHIRTHGEEQARKVYKMLAKRNYDVKIEQHNGQWVVTAS [N7H] | 7.22
EIHIRTKGEEQARKVYKMLAKRNYDVKIEQHNGQWVVTAS [N7K] | 7.39
EIHIRTIGEEQARKVYKMLAKRNYDVKIEQHNGQWVVTAS [N7I] | 7.07
EIHIRTVGEEQARKVYKMLAKRNYDVKIEQHNGQWVVTAS [N7V] | 6.93
EIHIRTDGEEQARKVYKMLAKRNYDVKIEQHNGQWVVTAS [N7D] | 7.63
EIHIRTPGEEQARKVYKMLAKRNYDVKIEQHNGQWVVTAS [N7P] | 5.51
EIHIRTMGEEQARKVYKMLAKRNYDVKIEQHNGQWVVTAS [N7M] | 7.07
EIHIRTQGEEQARKVYKMLAKRNYDVKIEQHNGQWVVTAS [N7Q] | 7.72
EIHIRTWGEEQARKVYKMLAKRNYDVKIEQHNGQWVVTAS [N7W] | 8.7
EIHIRTGGEEQARKVYKMLAKRNYDVKIEQHNGQWVVTAS [N7G] | 6.26
EIHIRTRGEEQARKVYKMLAKRNYDVKIEQHNGQWVVTAS [N7R] | 8.62
EIHIRTFGEEQARKVYKMLAKRNYDVKIEQHNGQWVVTAS [N7F] | 8.5
EIHIRTSGEEQARKVYKMLAKRNYDVKIEQHNGQWVVTAS [N7S] | 8.14
EIHIRTAGEEQARKVYKMLAKRNYDVKIEQHNGQWVVTAS [N7A] | 8.14
EIHIRTTGEEQARKVYKMLAKRNYDVKIEQHNGQWVVTAS [N7T] | 8.31

Variant | folding stability dG [kJ/mol]
EIHIRTEGEEQARKVYKMLAKRNYDVKIEQHNGQWVVTAS [N7E] | 7.08
EIHIRTNGEEQARDVYKMLAKRNYDVKIEQHNGQWVVTAS [K14D] | 5.05
EIHIRTNGEEQARAVYKMLAKRNYDVKIEQHNGQWVVTAS [K14A] | 7.77
EIHIRTNGEEQAQKVYKMLAKRNYDVKIEQHNGQWVVTAS [R13Q] | 6.16
EIHIRTNGEEQASKVYKMLAKRNYDVKIEQHNGQWVVTAS [R13S] | 3.18
EIHIRTNGEEQAIKVYKMLAKRNYDVKIEQHNGQWVVTAS [R13I] | 6.98
EIHIRTNGEEQAHKVYKMLAKRNYDVKIEQHNGQWVVTAS [R13H] | 5.53
EIHIRTNGEEQAKKVYKMLAKRNYDVKIEQHNGQWVVTAS [R13K] | 8.02
EIHIRTNGEEQANKVYKMLAKRNYDVKIEQHNGQWVVTAS [R13N] | 5.68
EIHIRTNGEEQATKVYKMLAKRNYDVKIEQHNGQWVVTAS [R13T] | 4.95
EIHIRTNGEEQAVKVYKMLAKRNYDVKIEQHNGQWVVTAS [R13V] | 5.31
EIHIRTNGEEQAWKVYKMLAKRNYDVKIEQHNGQWVVTAS [R13W] | 9.76
EIHIRTNGEEQAMKVYKMLAKRNYDVKIEQHNGQWVVTAS [R13M] | 7.49
EIHIRTNGEEQAYKVYKMLAKRNYDVKIEQHNGQWVVTAS [R13Y] | 7.74
EIHIRTNGEEQAEKVYKMLAKRNYDVKIEQHNGQWVVTAS [R13E] | 4.35
EIHIRTNGEEQAGKVYKMLAKRNYDVKIEQHNGQWVVTAS [R13G] | 1.57
EIHIRTNGEEQAFKVYKMLAKRNYDVKIEQHNGQWVVTAS [R13F] | 6.29
EIHIRTNGEEQADKVYKMLAKRNYDVKIEQHNGQWVVTAS [R13D] | 2.1
EIHIRTNGEEQACKVYKMLAKRNYDVKIEQHNGQWVVTAS [R13C] | 11.5
EIHIRTNGEEQAAKVYKMLAKRNYDVKIEQHNGQWVVTAS [R13A] | 4.31
EIHIRTNGEEQALKVYKMLAKRNYDVKIEQHNGQWVVTAS [R13L] | 7.89
EIHIRTNGEGQARKVYKMLAKRNYDVKIEQHNGQWVVTAS [E10G] | 6.85
EIHIRTNGEYQARKVYKMLAKRNYDVKIEQHNGQWVVTAS [E10Y] | 7.56
EIHIRTNGEDQARKVYKMLAKRNYDVKIEQHNGQWVVTAS [E10D] | 7.3
EIHIRTNGERQARKVYKMLAKRNYDVKIEQHNGQWVVTAS [E10R] | 9.07

Variant | folding stability dG [kJ/mol]
EIHIRTNGEHQARKVYKMLAKRNYDVKIEQHNGQWVVTAS [E10H] | 6.61
EIHIRTNGEQQARKVYKMLAKRNYDVKIEQHNGQWVVTAS [E10Q] | 7.59
EIHIRTNGENQARKVYKMLAKRNYDVKIEQHNGQWVVTAS [E10N] | 7.2
EIHIRTNGESQARKVYKMLAKRNYDVKIEQHNGQWVVTAS [E10S] | 8.08
EIHIRTNGEPQARKVYKMLAKRNYDVKIEQHNGQWVVTAS [E10P] | 5.73
EIHIRTNGEKQARKVYKMLAKRNYDVKIEQHNGQWVVTAS [E10K] | 9
EIHIRTNGEWQARKVYKMLAKRNYDVKIEQHNGQWVVTAS [E10W] | 8.6
EIHIRTNGELQARKVYKMLAKRNYDVKIEQHNGQWVVTAS [E10L] | 8.29
EIHIRTNGEFQARKVYKMLAKRNYDVKIEQHNGQWVVTAS [E10F] | 7.22
EIHIRTNGETQARKVYKMLAKRNYDVKIEQHNGQWVVTAS [E10T] | 7.44
EIHIRTNGEVQARKVYKMLAKRNYDVKIEQHNGQWVVTAS [E10V] | 7.56
EIHIRTNGEAQARKVYKMLAKRNYDVKIEQHNGQWVVTAS [E10A] | 9.29
EIHIRTNGEMQARKVYKMLAKRNYDVKIEQHNGQWVVTAS [E10M] | 7.92
EIHIRTNGEIQARKVYKMLAKRNYDVKIEQHNGQWVVTAS [E10I] | 7.72
EIHIRTNGMEQARKVYKMLAKRNYDVKIEQHNGQWVVTAS [E9M] | 7.31
EIHIRTNGPEQARKVYKMLAKRNYDVKIEQHNGQWVVTAS [E9P] | 8.01
EIHIRTNGREQARKVYKMLAKRNYDVKIEQHNGQWVVTAS [E9R] | 7.41
EIHIRTNGSEQARKVYKMLAKRNYDVKIEQHNGQWVVTAS [E9S] | 4.79
EIHIRTNGFEQARKVYKMLAKRNYDVKIEQHNGQWVVTAS [E9F] | 9.73
EIHIRTNGGEQARKVYKMLAKRNYDVKIEQHNGQWVVTAS [E9G] | 3.12
EIHIRTNGLEQARKVYKMLAKRNYDVKIEQHNGQWVVTAS [E9L] | 10.2
EIHIRTNGKEQARKVYKMLAKRNYDVKIEQHNGQWVVTAS [E9K] | 7.08
EIHIRTNGTEQARKVYKMLAKRNYDVKIEQHNGQWVVTAS [E9T] | 3.65
EIHIRTNGDEQARKVYKMLAKRNYDVKIEQHNGQWVVTAS [E9D] | 2.67
EIHIRTNGIEQARKVYKMLAKRNYDVKIEQHNGQWVVTAS [E9I] | 9.44

Variant | folding stability dG [kJ/mol]
EIHIRTNGAEQARKVYKMLAKRNYDVKIEQHNGQWVVTAS [E9A] | 6.42
EIHIRTNGVEQARKVYKMLAKRNYDVKIEQHNGQWVVTAS [E9V] | 7.35
EIHIRTNGQEQARKVYKMLAKRNYDVKIEQHNGQWVVTAS [E9Q] | 6.38
EIHIRTNGYEQARKVYKMLAKRNYDVKIEQHNGQWVVTAS [E9Y] | 10.5
EIHIRTNGHEQARKVYKMLAKRNYDVKIEQHNGQWVVTAS [E9H] | 6.51
EIHIRTNGWEQARKVYKMLAKRNYDVKIEQHNGQWVVTAS [E9W] | 10.1
EIHIRTNGNEQARKVYKMLAKRNYDVKIEQHNGQWVVTAS [E9N] | 2.94
EIHIRTNEEEQARKVYKMLAKRNYDVKIEQHNGQWVVTAS [G8E] | 8.63
EIHIRTNREEQARKVYKMLAKRNYDVKIEQHNGQWVVTAS [G8R] | 9.06
EIHIRTNMEEQARKVYKMLAKRNYDVKIEQHNGQWVVTAS [G8M] | 7.85
EIHIRTNDEEQARKVYKMLAKRNYDVKIEQHNGQWVVTAS [G8D] | 12.4
EIHIRTNAEEQARKVYKMLAKRNYDVKIEQHNGQWVVTAS [G8A] | 7.51
EIHIRTNHEEQARKVYKMLAKRNYDVKIEQHNGQWVVTAS [G8H] | 9.24
EIHIRTNNEEQARKVYKMLAKRNYDVKIEQHNGQWVVTAS [G8N] | 12.3
EIHIRTNSEEQARKVYKMLAKRNYDVKIEQHNGQWVVTAS [G8S] | 13.6
EIHIRTNVEEQARKVYKMLAKRNYDVKIEQHNGQWVVTAS [G8V] | 8.6
EIHIRTNLEEQARKVYKMLAKRNYDVKIEQHNGQWVVTAS [G8L] | 8.59
EIHIRTNWEEQARKVYKMLAKRNYDVKIEQHNGQWVVTAS [G8W] | 8.43
EIHIRTNYEEQARKVYKMLAKRNYDVKIEQHNGQWVVTAS [G8Y] | 9.29
EIHIRTNTEEQARKVYKMLAKRNYDVKIEQHNGQWVVTAS [G8T] | 12
EIHIRTNKEEQARKVYKMLAKRNYDVKIEQHNGQWVVTAS [G8K] | 8.79
EIHIRTNIEEQARKVYKMLAKRNYDVKIEQHNGQWVVTAS [G8I] | 9.26
EIHIRTNPEEQARKVYKMLAKRNYDVKIEQHNGQWVVTAS [G8P] | 0.925
EIHIRTNQEEQARKVYKMLAKRNYDVKIEQHNGQWVVTAS [G8Q] | 8.12
EIHIRTNFEEQARKVYKMLAKRNYDVKIEQHNGQWVVTAS [G8F] | 9.28

— the MegaScale stability set (Tsuboyama et al. 2023)
